Measurements taken from publication PMC9253678, “Computer-Aided Design of α-L-Rhamnosidase to Increase the Synthesis Efficiency of Icariside I” (Frontiers in Bioengineering and Biotechnology, 2022).

Substrate: COc1ccc(-c2oc3c(CC=C(C)C)c(O[C@@H]4O[C@H](CO)[C@@H](O)[C@H](O)[C@H]4O)cc(O)c3c(=O)c2O[C@@H]2O[C@@H](C)[C@H](O)[C@@H](O)[C@H]2O)cc1
Test: HPLC of icariside I formation, Michaelis-Menten nonlinear fit
Type: biochemical, Thermotoga petrophila
Source text: HPLC of icariside I formation, Michaelis-Menten nonlinear fit on […]

[1] = optimal conditions of the mutant: 85°C, pH 4.6, icariin 0.1–4 mg/ml
[2] = optimal conditions of the enzyme: 80°C, pH 5.0, disodium hydrogen phosphate-citrate buffer, icariin 0.1–4 mg/ml
[3] = optimal conditions of the mutant: 80°C, pH 5.0, icariin 0.1–4 mg/ml
[4] = optimal conditions of the mutant: 85°C, pH 5.0, icariin 0.1–4 mg/ml
[5] = optimal conditions of the mutant: 80°C, pH 6.0, icariin 0.1–4 mg/ml

B1: TpeRha (Thermotoga petrophila RKU-1; D506A/H570A/K579A) (protein)
chain: MIQACDLRCEYLTSPVLGLDVIPRFSWRLKGNGKKQTRYKIIVSDNFDDIERGIGNVWESEKDSSKNLNIEYEGPKLKAYKGYYWRVKLWDEKENGPWSETAYFEMGPLEDWRGKWITMPSPLSFKDPAHRHELFYAMYFRKEFLLNKEVEKARVYVSGLGVYELHLNGKRVGNNVLDPAPTDYNKVALYSTYDVTQYLTTGKNTIGVILGNGRHIRDYGYSKPKLYLQLLVFYKDGSREFICSDETWKVSHGPLKENGIYFGEVYDARDEISGWDSPGFDDRNWSEVEIVEGPSLKAQLIPVIRVCEVIKPKRLWLSSRGTFIVDFGKNISGWVKLRVNNGKRGEKIIIRYAEVLDPSMDRLDTRNLRLARATDEYILKGQGVEIYEPRFTYHGFRYVEVEDYPGTLTSDNIEAMFVHTDVEKVGDFACSSELLNKIHSCVVNSQLANLMGIPTDCPQRDERMGWLGDAQLTVEEAMYNFDMAAFYTKYLMDIKLSQKEDGSISAVAPPYWKRYPSDPAWGTAYATILWYLYFFYEDRRVLEEHYDSLKRYVEFLRKNSPNHLTKLGQAGDWCPPGDAFPKRTPLILTSTWYYYHDTLILSEIAKILGKKEDEHEYRKLAGEIKEAFNRHFLRKVEDHTGRIVCFYRGIKLSPKDRIPTTQTCNVLPLWNKMVPEECREDVFKVLERLIEVDNDTHFDTGIVGTRYILEVLSENGRKDLALKLLLKEDYPSFGYMIKNGATTLWERWEKLEGTGMNSHNHVMLGSVDTWFYKYLSGIKPVAPGWKKIRIEPYFADQIDFVSAKIKTPNGSLEVSWKKQNKEYEIQIIIPVNTVGIFAVPESFKVSAINSKQVSYPSEFELEPGAYNIVLERVREC
notes: codon-optimized synthetic gene in pET-28a, E. coli BL21(DE3), Ni-NTA purified (His tag of vector); model domains span 1-861
Km [1]: 1.11 ± 0.34 µM | Vmax [1]: 6.59 µM/min | kcat [1]: 0.000212 s⁻¹ | kcat/Km [1]: 191 M⁻¹ s⁻¹

B2: TpeRha (Thermotoga petrophila RKU-1) (protein)
chain: MIQACDLRCEYLTSPVLGLDVIPRFSWRLKGNGKKQTRYKIIVSDNFDDIERGIGNVWESEKDSSKNLNIEYEGPKLKAYKGYYWRVKLWDEKENGPWSETAYFEMGPLEDWRGKWITMPSPLSFKDPAHRHELFYAMYFRKEFLLNKEVEKARVYVSGLGVYELHLNGKRVGNNVLDPAPTDYNKVALYSTYDVTQYLTTGKNTIGVILGNGRHIRDYGYSKPKLYLQLLVFYKDGSREFICSDETWKVSHGPLKENGIYFGEVYDARDEISGWDSPGFDDRNWSEVEIVEGPSLKAQLIPVIRVCEVIKPKRLWLSSRGTFIVDFGKNISGWVKLRVNNGKRGEKIIIRYAEVLDPSMDRLDTRNLRLARATDEYILKGQGVEIYEPRFTYHGFRYVEVEDYPGTLTSDNIEAMFVHTDVEKVGDFACSSELLNKIHSCVVNSQLANLMGIPTDCPQRDERMGWLGDAQLTVEEAMYNFDMAAFYTKYLMDIKLSQKEDGSISDVAPPYWKRYPSDPAWGTAYATILWYLYFFYEDRRVLEEHYDSLKRYVEFLRKNSPNHLTKLGQHGDWCPPGDKFPKRTPLILTSTWYYYHDTLILSEIAKILGKKEDEHEYRKLAGEIKEAFNRHFLRKVEDHTGRIVCFYRGIKLSPKDRIPTTQTCNVLPLWNKMVPEECREDVFKVLERLIEVDNDTHFDTGIVGTRYILEVLSENGRKDLALKLLLKEDYPSFGYMIKNGATTLWERWEKLEGTGMNSHNHVMLGSVDTWFYKYLSGIKPVAPGWKKIRIEPYFADQIDFVSAKIKTPNGSLEVSWKKQNKEYEIQIIIPVNTVGIFAVPESFKVSAINSKQVSYPSEFELEPGAYNIVLERVREC
notes: as for B1
Km [2]: 4.33 ± 3.47 µM | Vmax [2]: 0.098 µM/min | kcat [2]: 4e-06 s⁻¹ | kcat/Km [2]: 0.923 M⁻¹ s⁻¹

B3: TpeRha (Thermotoga petrophila RKU-1; K579A) (protein)
chain: MIQACDLRCEYLTSPVLGLDVIPRFSWRLKGNGKKQTRYKIIVSDNFDDIERGIGNVWESEKDSSKNLNIEYEGPKLKAYKGYYWRVKLWDEKENGPWSETAYFEMGPLEDWRGKWITMPSPLSFKDPAHRHELFYAMYFRKEFLLNKEVEKARVYVSGLGVYELHLNGKRVGNNVLDPAPTDYNKVALYSTYDVTQYLTTGKNTIGVILGNGRHIRDYGYSKPKLYLQLLVFYKDGSREFICSDETWKVSHGPLKENGIYFGEVYDARDEISGWDSPGFDDRNWSEVEIVEGPSLKAQLIPVIRVCEVIKPKRLWLSSRGTFIVDFGKNISGWVKLRVNNGKRGEKIIIRYAEVLDPSMDRLDTRNLRLARATDEYILKGQGVEIYEPRFTYHGFRYVEVEDYPGTLTSDNIEAMFVHTDVEKVGDFACSSELLNKIHSCVVNSQLANLMGIPTDCPQRDERMGWLGDAQLTVEEAMYNFDMAAFYTKYLMDIKLSQKEDGSISDVAPPYWKRYPSDPAWGTAYATILWYLYFFYEDRRVLEEHYDSLKRYVEFLRKNSPNHLTKLGQHGDWCPPGDAFPKRTPLILTSTWYYYHDTLILSEIAKILGKKEDEHEYRKLAGEIKEAFNRHFLRKVEDHTGRIVCFYRGIKLSPKDRIPTTQTCNVLPLWNKMVPEECREDVFKVLERLIEVDNDTHFDTGIVGTRYILEVLSENGRKDLALKLLLKEDYPSFGYMIKNGATTLWERWEKLEGTGMNSHNHVMLGSVDTWFYKYLSGIKPVAPGWKKIRIEPYFADQIDFVSAKIKTPNGSLEVSWKKQNKEYEIQIIIPVNTVGIFAVPESFKVSAINSKQVSYPSEFELEPGAYNIVLERVREC
notes: as for B1
Km [3]: 1.24 ± 0.09 µM | Vmax [3]: 1.97 µM/min | kcat [3]: 4.31e-05 s⁻¹ | kcat/Km [3]: 34.7 M⁻¹ s⁻¹

B4: TpeRha (Thermotoga petrophila RKU-1; D506A) (protein)
chain: MIQACDLRCEYLTSPVLGLDVIPRFSWRLKGNGKKQTRYKIIVSDNFDDIERGIGNVWESEKDSSKNLNIEYEGPKLKAYKGYYWRVKLWDEKENGPWSETAYFEMGPLEDWRGKWITMPSPLSFKDPAHRHELFYAMYFRKEFLLNKEVEKARVYVSGLGVYELHLNGKRVGNNVLDPAPTDYNKVALYSTYDVTQYLTTGKNTIGVILGNGRHIRDYGYSKPKLYLQLLVFYKDGSREFICSDETWKVSHGPLKENGIYFGEVYDARDEISGWDSPGFDDRNWSEVEIVEGPSLKAQLIPVIRVCEVIKPKRLWLSSRGTFIVDFGKNISGWVKLRVNNGKRGEKIIIRYAEVLDPSMDRLDTRNLRLARATDEYILKGQGVEIYEPRFTYHGFRYVEVEDYPGTLTSDNIEAMFVHTDVEKVGDFACSSELLNKIHSCVVNSQLANLMGIPTDCPQRDERMGWLGDAQLTVEEAMYNFDMAAFYTKYLMDIKLSQKEDGSISAVAPPYWKRYPSDPAWGTAYATILWYLYFFYEDRRVLEEHYDSLKRYVEFLRKNSPNHLTKLGQHGDWCPPGDKFPKRTPLILTSTWYYYHDTLILSEIAKILGKKEDEHEYRKLAGEIKEAFNRHFLRKVEDHTGRIVCFYRGIKLSPKDRIPTTQTCNVLPLWNKMVPEECREDVFKVLERLIEVDNDTHFDTGIVGTRYILEVLSENGRKDLALKLLLKEDYPSFGYMIKNGATTLWERWEKLEGTGMNSHNHVMLGSVDTWFYKYLSGIKPVAPGWKKIRIEPYFADQIDFVSAKIKTPNGSLEVSWKKQNKEYEIQIIIPVNTVGIFAVPESFKVSAINSKQVSYPSEFELEPGAYNIVLERVREC
notes: as for B1
Km [4]: 3.12 ± 0.26 µM | Vmax [4]: 1.91 µM/min | kcat [4]: 4.64e-05 s⁻¹ | kcat/Km [4]: 14.9 M⁻¹ s⁻¹

B5: TpeRha (Thermotoga petrophila RKU-1; D506A/H570A) (protein)
chain: MIQACDLRCEYLTSPVLGLDVIPRFSWRLKGNGKKQTRYKIIVSDNFDDIERGIGNVWESEKDSSKNLNIEYEGPKLKAYKGYYWRVKLWDEKENGPWSETAYFEMGPLEDWRGKWITMPSPLSFKDPAHRHELFYAMYFRKEFLLNKEVEKARVYVSGLGVYELHLNGKRVGNNVLDPAPTDYNKVALYSTYDVTQYLTTGKNTIGVILGNGRHIRDYGYSKPKLYLQLLVFYKDGSREFICSDETWKVSHGPLKENGIYFGEVYDARDEISGWDSPGFDDRNWSEVEIVEGPSLKAQLIPVIRVCEVIKPKRLWLSSRGTFIVDFGKNISGWVKLRVNNGKRGEKIIIRYAEVLDPSMDRLDTRNLRLARATDEYILKGQGVEIYEPRFTYHGFRYVEVEDYPGTLTSDNIEAMFVHTDVEKVGDFACSSELLNKIHSCVVNSQLANLMGIPTDCPQRDERMGWLGDAQLTVEEAMYNFDMAAFYTKYLMDIKLSQKEDGSISAVAPPYWKRYPSDPAWGTAYATILWYLYFFYEDRRVLEEHYDSLKRYVEFLRKNSPNHLTKLGQAGDWCPPGDKFPKRTPLILTSTWYYYHDTLILSEIAKILGKKEDEHEYRKLAGEIKEAFNRHFLRKVEDHTGRIVCFYRGIKLSPKDRIPTTQTCNVLPLWNKMVPEECREDVFKVLERLIEVDNDTHFDTGIVGTRYILEVLSENGRKDLALKLLLKEDYPSFGYMIKNGATTLWERWEKLEGTGMNSHNHVMLGSVDTWFYKYLSGIKPVAPGWKKIRIEPYFADQIDFVSAKIKTPNGSLEVSWKKQNKEYEIQIIIPVNTVGIFAVPESFKVSAINSKQVSYPSEFELEPGAYNIVLERVREC
notes: as for B1
Km [1]: 0.51 ± 0.13 µM | Vmax [1]: 2.5 µM/min | kcat [1]: 9.87e-05 s⁻¹ | kcat/Km [1]: 194 M⁻¹ s⁻¹

B6: TpeRha (Thermotoga petrophila RKU-1; H570A) (protein)
chain: MIQACDLRCEYLTSPVLGLDVIPRFSWRLKGNGKKQTRYKIIVSDNFDDIERGIGNVWESEKDSSKNLNIEYEGPKLKAYKGYYWRVKLWDEKENGPWSETAYFEMGPLEDWRGKWITMPSPLSFKDPAHRHELFYAMYFRKEFLLNKEVEKARVYVSGLGVYELHLNGKRVGNNVLDPAPTDYNKVALYSTYDVTQYLTTGKNTIGVILGNGRHIRDYGYSKPKLYLQLLVFYKDGSREFICSDETWKVSHGPLKENGIYFGEVYDARDEISGWDSPGFDDRNWSEVEIVEGPSLKAQLIPVIRVCEVIKPKRLWLSSRGTFIVDFGKNISGWVKLRVNNGKRGEKIIIRYAEVLDPSMDRLDTRNLRLARATDEYILKGQGVEIYEPRFTYHGFRYVEVEDYPGTLTSDNIEAMFVHTDVEKVGDFACSSELLNKIHSCVVNSQLANLMGIPTDCPQRDERMGWLGDAQLTVEEAMYNFDMAAFYTKYLMDIKLSQKEDGSISDVAPPYWKRYPSDPAWGTAYATILWYLYFFYEDRRVLEEHYDSLKRYVEFLRKNSPNHLTKLGQAGDWCPPGDKFPKRTPLILTSTWYYYHDTLILSEIAKILGKKEDEHEYRKLAGEIKEAFNRHFLRKVEDHTGRIVCFYRGIKLSPKDRIPTTQTCNVLPLWNKMVPEECREDVFKVLERLIEVDNDTHFDTGIVGTRYILEVLSENGRKDLALKLLLKEDYPSFGYMIKNGATTLWERWEKLEGTGMNSHNHVMLGSVDTWFYKYLSGIKPVAPGWKKIRIEPYFADQIDFVSAKIKTPNGSLEVSWKKQNKEYEIQIIIPVNTVGIFAVPESFKVSAINSKQVSYPSEFELEPGAYNIVLERVREC
notes: as for B1
Km [5]: 0.92 ± 0.08 µM | Vmax [5]: 1.19 µM/min | kcat [5]: 3.64e-05 s⁻¹ | kcat/Km [5]: 39.5 M⁻¹ s⁻¹
